According to patent publication US20220340666A1 (published 2022):
Residue numbers refer to the chain shown, from its start. One block for each binder: values may come before it.

Columns and labels:
[1] = target: human Galectin-9 CRD1 (residues 1-148), biotinylated (UniProt O00182 1-148, biotinylated in vitro with BirA (Avitag)); assay: bead-based binding assay; apparent Kd; plots and legend state CRD1
[2] = target: T1, human Galectin-9 CRD2 (residues 218-355), biotinylated (UniProt O00182 218-355, biotinylated in vitro with BirA (Avitag)); assay: bead-based binding assay; apparent Kd
[3] = target: T1, human Galectin-9 CRD2 (residues …); assay: SPR
[4] = target: T1, human Galectin-9 CRD2 (residues …); assay: SPR; remark: listed apart in the source

T1 sequence (O00182 218-355): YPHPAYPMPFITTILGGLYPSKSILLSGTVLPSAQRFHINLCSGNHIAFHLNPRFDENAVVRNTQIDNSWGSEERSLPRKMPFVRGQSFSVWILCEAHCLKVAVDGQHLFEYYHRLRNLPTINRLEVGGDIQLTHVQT
Chain of human Galectin-9 CRD1 (residues 1-148), biotinylated (O00182 1-148): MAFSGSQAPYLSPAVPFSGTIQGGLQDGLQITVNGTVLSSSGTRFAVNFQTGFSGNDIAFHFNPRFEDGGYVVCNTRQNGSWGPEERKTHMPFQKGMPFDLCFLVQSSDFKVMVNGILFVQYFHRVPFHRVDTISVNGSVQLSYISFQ

B1: G9.1-5 Fab (Fab, V domains shown)
VH: EVQLVESGGGLVQPGGSLRLSCAASGFTIYYSSIHWVRQAPGKGLEWVASISSSYGSTYYADSVKGRFTISADTSKNTAYLQMNSLRAEDTAVYYCARSVSWYPYYYYYGYGSGLDYWGQGTLVTVSS
VL: DIQMTQSPSSLSASVGDRVTITCRASQSVSSAVAWYQQKPGKAPKLLIYSASSLYSGVPSRFSGSRSGTDFTLTISSLQPEDFATYYCQQYYGWFYPVTFGQGTKVEIKR
Kd [1]: 30.4 nM

B2: G9.1-8 Fab (Fab, V domains shown)
VH: EVQLVESGGGLVQPGGSLRLSCAASGFTVSSSSIHWVRQAPGKGLEWVAYIYPYSGYTSYADSVKGRFTISADTSKNTAYLQMNSLRAEDTAVYYCARYSTYSWGGIGKWVWGMDYWGQGTLVTVSS
VL: B1 VL with Y91S, G93Y, W94D, F95S, Y96N, V98I
Kd [1]: 9.8 nM

B3: G9.2-1 Fab (Fab, V domains shown)
VH: EVQLVESGGGLVQPGGSLRLSCAASGFTLYSSSIHWVRQAPGKGLEWVASIYSSSGYTYYADSVKGRFTISADTSKNTAYLQMNSLRAEDTAVYYCARTYTWKSSWSYQTGYGLDYWGQGTLVTVSS
VL: DIQMTQSPSSLSASVGDRVTITCRASQSVSSAVAWYQQKPGKAPKLLIYSASSLYSGVPSRFSGSRSGTDFTLTISSLQPEDFATYYCQQYKSKYPFTFGQGTKVEIKR
Kd [2]: 4170 nM

B6: G9.1-11 Fab (Fab, V domains shown)
VH: EVQLVESGGGLVQPGGSLRLSCAASGFTVYSSSIHWVRQAPGKGLEWVASIYSYYGYTSYADSVKGRFTISADTSKNTAYLQMNSLRAEDTAVYYCARSTEGYDRWGYYSSYWSSGLDYWGQGTLVTVSS
VL: DIQMTQSPSSLSASVGDRVTITCRASQSVSSAVAWYQQKPGKAPKLLIYSASSLYSGVPSRFSGSRSGTDFTLTISSLQPEDFATYYCQQTYWGLITFGQGTKVEIKR
Kd [1]: 20.4 nM

B7: G9.2-3 Fab (Fab, V domains shown)
VH: EVQLVESGGGLVQPGGSLRLSCAASGFTFSSSSIHWVRQAPGKGLEWVASISSSSGSTSYADSVKGRFTISADTSKNTAYLQMNSLRAEDTAVYYCARPAYSYPYYYFHYGAMDYWGQGTLVTVSS
VL: B6 VL with T91S, Y92S, W93S, G94S
Kd [2]: 1380 nM

B8: G9.1-6 Fab (Fab, V domains shown)
VH: EVQLVESGGGLVQPGGSLRLSCAASGFTLSSSSIHWVRQAPGKGLEWVASIYSSYGSTSYADSVKGRFTISADTSKNTAYLQMNSLRAEDTAVYYCARSSHWYMYWSYWGWYIGMDYWGQGTLVTVSS
VL: B6 VL with T91Y, Y92H, W93S, G94S, I96F
Kd [1]: 29.2 nM

Now from value to binder:

Kd [3]: 0.219 nM
Kd [4]: 0.232 nM
Kd [2]: 0.76 nM
B4: G9.2-17 Fab (Fab, V domains shown)
VH: EVQLVESGGGLVQPGGSLRLSCAASGFTVSSSSIHWVRQAPGKGLEWVAYISSSSGYTYYADSVKGRFTISADTSKNTAYLQMNSLRAEDTAVYYCARYWSYPSWWPYRGMDYWGQGTLVTVSS
VL: B6 VL with T91S, Y92S, W93T, G94D, L95P

Kd [3]: 0.154 nM
B5: G9.2-17mut6 Fab (Fab, V domains shown)
VH: B4 VH with W106S
VL: B6 VL with T91S, Y92S, W93T, G94D, L95P

Kd [4]: 4.8 nM
Kd [2]: 0.71 nM
B9: G9.2-15 Fab (Fab, V domains shown)
VH: EVQLVESGGGLVQPGGSLRLSCAASGFTVSSSSIHWVRQAPGKGLEWVASIYSSSGYTSYADSVKGRFTISADTSKNTAYLQMNSLRAEDTAVYYCARNVENYPYWAWPWGYYGAIDYWGQGTLVTVSS
VL: B6 VL with T91S, Y92S
